In patent publication US20210388087A1 (Chugai, published 2021):

B1: GLS3000 N30P (antibody, name in Kabat numbering, V domains shown)
VH: QVQLVESGGGVVQPGRSLRLSCAASGFTFSNAWMHWVRQAPGKGLEWVAQIKAKSNNYATYYAESVKGRFTISRDDSKNSLYLQMNSLKTEDTAVYYCRYVHYGAYYGVDAWGQGTTVTVSS
VL: DIVMTQSPLSLPVTPGEPASISCRSSQSLVHSNRPTYLHWYQQKPGQAPRLLIYKVSNRFSGVPDRFSGSGSGTDFTLKISRVEAEDVGVYYCGQGTQVPYTFGQGTKLEIK
notes: one-arm IgG as m2
B2: GLS3000 N30Q (antibody, name in Kabat numbering, V domains shown)
VH: QVQLVESGGGVVQPGRSLRLSCAASGFTFSNAWMHWVRQAPGKGLEWVAQIKAKSNNYATYYAESVKGRFTISRDDSKNSLYLQMNSLKTEDTAVYYCRYVHYGAYYGVDAWGQGTTVTVSS
VL: DIVMTQSPLSLPVTPGEPASISCRSSQSLVHSNRQTYLHWYQQKPGQAPRLLIYKVSNRFSGVPDRFSGSGSGTDFTLKISRVEAEDVGVYYCGQGTQVPYTFGQGTKLEIK
notes: one-arm IgG as m2
B3: GLS3000 N30R (antibody, name in Kabat numbering, V domains shown)
VH: QVQLVESGGGVVQPGRSLRLSCAASGFTFSNAWMHWVRQAPGKGLEWVAQIKAKSNNYATYYAESVKGRFTISRDDSKNSLYLQMNSLKTEDTAVYYCRYVHYGAYYGVDAWGQGTTVTVSS
VL: DIVMTQSPLSLPVTPGEPASISCRSSQSLVHSNRRTYLHWYQQKPGQAPRLLIYKVSNRFSGVPDRFSGSGSGTDFTLKISRVEAEDVGVYYCGQGTQVPYTFGQGTKLEIK
notes: one-arm IgG as m2
B4: GLS3000 N30S (antibody, name in Kabat numbering, V domains shown)
VH: QVQLVESGGGVVQPGRSLRLSCAASGFTFSNAWMHWVRQAPGKGLEWVAQIKAKSNNYATYYAESVKGRFTISRDDSKNSLYLQMNSLKTEDTAVYYCRYVHYGAYYGVDAWGQGTTVTVSS
VL: DIVMTQSPLSLPVTPGEPASISCRSSQSLVHSNRSTYLHWYQQKPGQAPRLLIYKVSNRFSGVPDRFSGSGSGTDFTLKISRVEAEDVGVYYCGQGTQVPYTFGQGTKLEIK
notes: one-arm IgG as m2
B5: GLS3000 N30T (antibody, name in Kabat numbering, V domains shown)
VH: QVQLVESGGGVVQPGRSLRLSCAASGFTFSNAWMHWVRQAPGKGLEWVAQIKAKSNNYATYYAESVKGRFTISRDDSKNSLYLQMNSLKTEDTAVYYCRYVHYGAYYGVDAWGQGTTVTVSS
VL: DIVMTQSPLSLPVTPGEPASISCRSSQSLVHSNRTTYLHWYQQKPGQAPRLLIYKVSNRFSGVPDRFSGSGSGTDFTLKISRVEAEDVGVYYCGQGTQVPYTFGQGTKLEIK
notes: one-arm IgG as m2
B6: GLS3000 N30V (antibody, name in Kabat numbering, V domains shown)
VH: QVQLVESGGGVVQPGRSLRLSCAASGFTFSNAWMHWVRQAPGKGLEWVAQIKAKSNNYATYYAESVKGRFTISRDDSKNSLYLQMNSLKTEDTAVYYCRYVHYGAYYGVDAWGQGTTVTVSS
VL: DIVMTQSPLSLPVTPGEPASISCRSSQSLVHSNRVTYLHWYQQKPGQAPRLLIYKVSNRFSGVPDRFSGSGSGTDFTLKISRVEAEDVGVYYCGQGTQVPYTFGQGTKLEIK
notes: one-arm IgG as m2
B7: GLS3000 N30W (antibody, name in Kabat numbering, V domains shown)
VH: QVQLVESGGGVVQPGRSLRLSCAASGFTFSNAWMHWVRQAPGKGLEWVAQIKAKSNNYATYYAESVKGRFTISRDDSKNSLYLQMNSLKTEDTAVYYCRYVHYGAYYGVDAWGQGTTVTVSS
VL: DIVMTQSPLSLPVTPGEPASISCRSSQSLVHSNRWTYLHWYQQKPGQAPRLLIYKVSNRFSGVPDRFSGSGSGTDFTLKISRVEAEDVGVYYCGQGTQVPYTFGQGTKLEIK
notes: one-arm IgG as m2
B8: GLS3000 N30Y (antibody, name in Kabat numbering, V domains shown)
VH: QVQLVESGGGVVQPGRSLRLSCAASGFTFSNAWMHWVRQAPGKGLEWVAQIKAKSNNYATYYAESVKGRFTISRDDSKNSLYLQMNSLKTEDTAVYYCRYVHYGAYYGVDAWGQGTTVTVSS
VL: DIVMTQSPLSLPVTPGEPASISCRSSQSLVHSNRYTYLHWYQQKPGQAPRLLIYKVSNRFSGVPDRFSGSGSGTDFTLKISRVEAEDVGVYYCGQGTQVPYTFGQGTKLEIK
notes: one-arm IgG as m2
B9: GLS3000 N53A (antibody, name in Kabat numbering, V domains shown)
VH: QVQLVESGGGVVQPGRSLRLSCAASGFTFSNAWMHWVRQAPGKGLEWVAQIKAKSNNYATYYAESVKGRFTISRDDSKNSLYLQMNSLKTEDTAVYYCRYVHYGAYYGVDAWGQGTTVTVSS
VL: DIVMTQSPLSLPVTPGEPASISCRSSQSLVHSNRNTYLHWYQQKPGQAPRLLIYKVSARFSGVPDRFSGSGSGTDFTLKISRVEAEDVGVYYCGQGTQVPYTFGQGTKLEIK
notes: one-arm IgG as m2
B10: GLS3000 N53D (antibody, name in Kabat numbering, V domains shown)
VH: QVQLVESGGGVVQPGRSLRLSCAASGFTFSNAWMHWVRQAPGKGLEWVAQIKAKSNNYATYYAESVKGRFTISRDDSKNSLYLQMNSLKTEDTAVYYCRYVHYGAYYGVDAWGQGTTVTVSS
VL: DIVMTQSPLSLPVTPGEPASISCRSSQSLVHSNRNTYLHWYQQKPGQAPRLLIYKVSDRFSGVPDRFSGSGSGTDFTLKISRVEAEDVGVYYCGQGTQVPYTFGQGTKLEIK
notes: one-arm IgG as m2
B11: GLS3000 N53E (antibody, name in Kabat numbering, V domains shown)
VH: QVQLVESGGGVVQPGRSLRLSCAASGFTFSNAWMHWVRQAPGKGLEWVAQIKAKSNNYATYYAESVKGRFTISRDDSKNSLYLQMNSLKTEDTAVYYCRYVHYGAYYGVDAWGQGTTVTVSS
VL: DIVMTQSPLSLPVTPGEPASISCRSSQSLVHSNRNTYLHWYQQKPGQAPRLLIYKVSERFSGVPDRFSGSGSGTDFTLKISRVEAEDVGVYYCGQGTQVPYTFGQGTKLEIK
notes: one-arm IgG as m2
B12: GLS3000 N53F (antibody, name in Kabat numbering, V domains shown)
VH: QVQLVESGGGVVQPGRSLRLSCAASGFTFSNAWMHWVRQAPGKGLEWVAQIKAKSNNYATYYAESVKGRFTISRDDSKNSLYLQMNSLKTEDTAVYYCRYVHYGAYYGVDAWGQGTTVTVSS
VL: DIVMTQSPLSLPVTPGEPASISCRSSQSLVHSNRNTYLHWYQQKPGQAPRLLIYKVSFRFSGVPDRFSGSGSGTDFTLKISRVEAEDVGVYYCGQGTQVPYTFGQGTKLEIK
notes: one-arm IgG as m2
B13: GLS3000 N53G (antibody, name in Kabat numbering, V domains shown)
VH: QVQLVESGGGVVQPGRSLRLSCAASGFTFSNAWMHWVRQAPGKGLEWVAQIKAKSNNYATYYAESVKGRFTISRDDSKNSLYLQMNSLKTEDTAVYYCRYVHYGAYYGVDAWGQGTTVTVSS
VL: DIVMTQSPLSLPVTPGEPASISCRSSQSLVHSNRNTYLHWYQQKPGQAPRLLIYKVSGRFSGVPDRFSGSGSGTDFTLKISRVEAEDVGVYYCGQGTQVPYTFGQGTKLEIK
notes: one-arm IgG as m2
B14: GLS3000 N53H (antibody, name in Kabat numbering, V domains shown)
VH: QVQLVESGGGVVQPGRSLRLSCAASGFTFSNAWMHWVRQAPGKGLEWVAQIKAKSNNYATYYAESVKGRFTISRDDSKNSLYLQMNSLKTEDTAVYYCRYVHYGAYYGVDAWGQGTTVTVSS
VL: DIVMTQSPLSLPVTPGEPASISCRSSQSLVHSNRNTYLHWYQQKPGQAPRLLIYKVSHRFSGVPDRFSGSGSGTDFTLKISRVEAEDVGVYYCGQGTQVPYTFGQGTKLEIK
notes: one-arm IgG as m2
B15: GLS3000 N53I (antibody, name in Kabat numbering, V domains shown)
VH: QVQLVESGGGVVQPGRSLRLSCAASGFTFSNAWMHWVRQAPGKGLEWVAQIKAKSNNYATYYAESVKGRFTISRDDSKNSLYLQMNSLKTEDTAVYYCRYVHYGAYYGVDAWGQGTTVTVSS
VL: DIVMTQSPLSLPVTPGEPASISCRSSQSLVHSNRNTYLHWYQQKPGQAPRLLIYKVSIRFSGVPDRFSGSGSGTDFTLKISRVEAEDVGVYYCGQGTQVPYTFGQGTKLEIK
notes: one-arm IgG as m2
B16: GLS3000 N53K (antibody, name in Kabat numbering, V domains shown)
VH: QVQLVESGGGVVQPGRSLRLSCAASGFTFSNAWMHWVRQAPGKGLEWVAQIKAKSNNYATYYAESVKGRFTISRDDSKNSLYLQMNSLKTEDTAVYYCRYVHYGAYYGVDAWGQGTTVTVSS
VL: DIVMTQSPLSLPVTPGEPASISCRSSQSLVHSNRNTYLHWYQQKPGQAPRLLIYKVSKRFSGVPDRFSGSGSGTDFTLKISRVEAEDVGVYYCGQGTQVPYTFGQGTKLEIK
notes: one-arm IgG as m2
B17: GLS3000 N53L (antibody, name in Kabat numbering, V domains shown)
VH: QVQLVESGGGVVQPGRSLRLSCAASGFTFSNAWMHWVRQAPGKGLEWVAQIKAKSNNYATYYAESVKGRFTISRDDSKNSLYLQMNSLKTEDTAVYYCRYVHYGAYYGVDAWGQGTTVTVSS
VL: DIVMTQSPLSLPVTPGEPASISCRSSQSLVHSNRNTYLHWYQQKPGQAPRLLIYKVSLRFSGVPDRFSGSGSGTDFTLKISRVEAEDVGVYYCGQGTQVPYTFGQGTKLEIK
notes: one-arm IgG as m2
B18: GLS3000 N53M (antibody, name in Kabat numbering, V domains shown)
VH: QVQLVESGGGVVQPGRSLRLSCAASGFTFSNAWMHWVRQAPGKGLEWVAQIKAKSNNYATYYAESVKGRFTISRDDSKNSLYLQMNSLKTEDTAVYYCRYVHYGAYYGVDAWGQGTTVTVSS
VL: DIVMTQSPLSLPVTPGEPASISCRSSQSLVHSNRNTYLHWYQQKPGQAPRLLIYKVSMRFSGVPDRFSGSGSGTDFTLKISRVEAEDVGVYYCGQGTQVPYTFGQGTKLEIK
notes: one-arm IgG as m2
B19: GLS3000 N53P (antibody, name in Kabat numbering, V domains shown)
VH: QVQLVESGGGVVQPGRSLRLSCAASGFTFSNAWMHWVRQAPGKGLEWVAQIKAKSNNYATYYAESVKGRFTISRDDSKNSLYLQMNSLKTEDTAVYYCRYVHYGAYYGVDAWGQGTTVTVSS
VL: DIVMTQSPLSLPVTPGEPASISCRSSQSLVHSNRNTYLHWYQQKPGQAPRLLIYKVSPRFSGVPDRFSGSGSGTDFTLKISRVEAEDVGVYYCGQGTQVPYTFGQGTKLEIK
notes: one-arm IgG as m2
B20: GLS3000 N53Q (antibody, name in Kabat numbering, V domains shown)
VH: QVQLVESGGGVVQPGRSLRLSCAASGFTFSNAWMHWVRQAPGKGLEWVAQIKAKSNNYATYYAESVKGRFTISRDDSKNSLYLQMNSLKTEDTAVYYCRYVHYGAYYGVDAWGQGTTVTVSS
VL: DIVMTQSPLSLPVTPGEPASISCRSSQSLVHSNRNTYLHWYQQKPGQAPRLLIYKVSQRFSGVPDRFSGSGSGTDFTLKISRVEAEDVGVYYCGQGTQVPYTFGQGTKLEIK
notes: one-arm IgG as m2
B21: GLS3000 N53R (antibody, name in Kabat numbering, V domains shown)
VH: QVQLVESGGGVVQPGRSLRLSCAASGFTFSNAWMHWVRQAPGKGLEWVAQIKAKSNNYATYYAESVKGRFTISRDDSKNSLYLQMNSLKTEDTAVYYCRYVHYGAYYGVDAWGQGTTVTVSS
VL: DIVMTQSPLSLPVTPGEPASISCRSSQSLVHSNRNTYLHWYQQKPGQAPRLLIYKVSRRFSGVPDRFSGSGSGTDFTLKISRVEAEDVGVYYCGQGTQVPYTFGQGTKLEIK
notes: one-arm IgG as m2

target: T1, CD3 epsilon homodimer protein (UniProt P07766 23-126); test: SPR Biacore T200, CD3e homodimer on chip, vs unaltered GLS3000 antibody
T1 construct: also called CD3 (CD3 epsilon)
T1 sequence (P07766 23-126): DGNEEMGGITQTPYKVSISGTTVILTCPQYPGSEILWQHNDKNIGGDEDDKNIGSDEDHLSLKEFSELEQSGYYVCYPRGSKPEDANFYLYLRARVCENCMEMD

**Q.** How did the “ratio of amounts bound (Z=Y/X)” value turn out when B1 was run?
**A.** 0.31

**Q.** Which “ratio of amounts bound (Z=Y/X)” value does the source give for B2 here?
**A.** 0.87

**Q.** Which “ratio of amounts bound (Z=Y/X)” value does the source give for B3 here?
**A.** 1.86

**Q.** With B4 as the binder, how does the “ratio of amounts bound (Z=Y/X)” value read?
**A.** 0.29

**Q.** How did the “ratio of amounts bound (Z=Y/X)” value turn out when B5 was run?
**A.** 0.29

**Q.** With B6 as the binder, how does the “ratio of amounts bound (Z=Y/X)” value read?
**A.** 0.61

**Q.** For B7, which “ratio of amounts bound (Z=Y/X)” value is on record?
**A.** 0.99

**Q.** Which “ratio of amounts bound (Z=Y/X)” value does the source give for B8 here?
**A.** 1.04

**Q.** With B9 as the binder, how does the “ratio of amounts bound (Z=Y/X)” value read?
**A.** 0.61

**Q.** For B10, which “ratio of amounts bound (Z=Y/X)” value is on record?
**A.** 0.34

**Q.** Which “ratio of amounts bound (Z=Y/X)” value does the source give for B11 here?
**A.** 0.54

**Q.** With B12 as the binder, how does the “ratio of amounts bound (Z=Y/X)” value read?
**A.** 0.69

**Q.** Which “ratio of amounts bound (Z=Y/X)” value does the source give for B13 here?
**A.** 0.76

**Q.** B14 was tested. Which “ratio of amounts bound (Z=Y/X)” value did it give?
**A.** 1.18

**Q.** With B15 as the binder, how does the “ratio of amounts bound (Z=Y/X)” value read?
**A.** 0.5

**Q.** With B16 as the binder, how does the “ratio of amounts bound (Z=Y/X)” value read?
**A.** 1.08

**Q.** B17 was tested. Which “ratio of amounts bound (Z=Y/X)” value did it give?
**A.** 0.56

**Q.** B18 was tested. Which “ratio of amounts bound (Z=Y/X)” value did it give?
**A.** 0.62

**Q.** With B19 as the binder, how does the “ratio of amounts bound (Z=Y/X)” value read?
**A.** 0.81

**Q.** B20 was tested. Which “ratio of amounts bound (Z=Y/X)” value did it give?
**A.** 0.77

**Q.** B21 was tested. Which “ratio of amounts bound (Z=Y/X)” value did it give?
**A.** 1.58
